The values that follow come from patent publication US20220177594A1.

To fix the notation:
B1: mouse: canine 09E09 chimera (antibody, V domains shown)
VH: DVKLVESGEGLVKPGGSLKLSCAASGFTFSSYAMSWVRQTPEKRLEWVAYISSGGDYIYYADTVKGRFTISRDNARNTLYLQMSSLKSEDTAMYYCTRDPITGTFAYWGQGTLVTVSA
VL: DLQMTQTTSSLSASLGDRVTISCRASQDINNYLNWYQQKPDGTVKLLIYYTSTLHSGVPSRFSGSGSGTDYSLTISNLEQEDIATYFCQQGNTLPWTFGGGTKLEIKR
B2: mouse: canine 10F07 chimera (antibody, V domains shown)
VH: B1 VH with A49T, I58F
VL: B1 VL with L2I, N30T, Y71F, N92H, T93M
B3: Mu_09E09 (antibody, V domains shown)
VH: B1 VH
VL: DLQMTQTTSSLSASLGDRVTISCRASQDINNYLNWYQQKPDGTVKLLIYYTSTLHSGVPSRFSGSGSGTDYSLTISNLEQEDIATYFCQQGNTLPWTFGGGTKLEIK
B4: Mu_10F07 (antibody, V domains shown)
VH: B1 VH with A49T, I58F
VL: B3 VL with L2I, N30T, Y71F, N92H, T93M
B5: Mu_02D09 (antibody, V domains shown)
VH: EVQLVESGGGLVKPGGSLTLSCAASGFTFSDYGMHWLRQAPEKGLEWVAYISSGSRAVFFADTVKGRFTISRDNAKNTLFLQMTSLRSDDTAMYYCARDRYDGRGFAYWGQGTLVTVSA
VL: DIVLTQSPATLSVTPGDSVSLSCRASQSISNNLHWYQQTSHESPRLLITYASQSISGIPSRFSGSGSGTDFTLSINSVETEDFGMYFCQQSNSWPLTFGAGTKLELK
B6: mouse: canine 02D09 chimera (antibody, V domains shown)
VH: B5 VH
VL: DIVLTQSPATLSVTPGDSVSLSCRASQSISNNLHWYQQTSHESPRLLITYASQSISGIPSRFSGSGSGTDFTLSINSVETEDFGMYFCQQSNSWPLTFGAGTKLELKR
B7: mouse: canine 19F07 chimera (antibody, V domains shown)
VH: EVKLVESEGGLVQPGSSMKLSCTASGFTFSDYYMAWVRQVPEKGLEWVANINYDGSSTYYLDSLKSRFIISRDNAKNILYLQMSSLKSEDTATYYCARGLTWDFDVWGTGTTVTVSS
VL: DIVMTQSHKFMSPSVGDRVSITCKASQDVDTAVAWYQQKPGQSPKLLIYLASTRHTGVPDRFTGSGSGTDFTLTISNVQSEDLADYFCQQYSRFPLTFGAGTKLELKR
B8: Mu_19F07 (antibody, V domains shown)
VH: B7 VH
VL: DIVMTQSHKFMSPSVGDRVSITCKASQDVDTAVAWYQQKPGQSPKLLIYLASTRHTGVPDRFTGSGSGTDFTLTISNVQSEDLADYFCQQYSRFPLTFGAGTKLELK
B9: Mu_14C04 (antibody, V domains shown)
VH: EVQLQESGAELVKPGASVKISCKASGYAFSNYWMNWMKQRPGKGLEWIGQIYPGHVNTNYNGNFKDKATLTADKSSSTAYMQLSSLTSEDSAVYFCARSADNSGFVLFAYWGQGTLVTVS
VL: DIVLTQSPASLAVSLGQRATISCRASKSVSTSGYSYLHWYQQKPGQPPKLLIFLASNLESGVPARFSGSGSGTDFTLNIHPVEEEDAATYYCQHSRELPLTFGAGTKLELK
B10: Mu_10F07_VL (SEQ ID NO: 41)_T53A (antibody, V domains shown)
VH: B1 VH with A49T, I58F
VL: B1 VL with L2I, N30T, T53A, Y71F, N92H, T93M
B11: Mu_10F07_VH (SEQ ID NO: 39)_Y107A (antibody, V domains shown)
VH: B1 VH with A49T, I58F, Y107A
VL: B1 VL with L2I, N30T, Y71F, N92H, T93M
B12: Mu_10F07_VL (SEQ ID NO: 41)_T97A (antibody, V domains shown)
VH: B1 VH with A49T, I58F
VL: B1 VL with L2I, N30T, Y71F, N92H, T93M, T97A
B13: Mu_10F07_VL (SEQ ID NO: 41)_W96A (antibody, V domains shown)
VH: B1 VH with A49T, I58F
VL: B1 VL with L2I, N30T, Y71F, N92H, T93M, W96A
B14: Mu_10F07_VL (SEQ ID NO: 41)_L33A (antibody, V domains shown)
VH: B1 VH with A49T, I58F
VL: B1 VL with L2I, N30T, L33A, Y71F, N92H, T93M

Substitutions are numbered along the chain they refer to.

One assay deals with Feline_OSMR_hlgG1_Fc (feline). As to the kind of experiment: SPR Biacore, OSMR on chip.
Chain of Feline_OSMR_hlgG1_Fc (feline) (chain, as listed by the source limits assumed, form in doubt): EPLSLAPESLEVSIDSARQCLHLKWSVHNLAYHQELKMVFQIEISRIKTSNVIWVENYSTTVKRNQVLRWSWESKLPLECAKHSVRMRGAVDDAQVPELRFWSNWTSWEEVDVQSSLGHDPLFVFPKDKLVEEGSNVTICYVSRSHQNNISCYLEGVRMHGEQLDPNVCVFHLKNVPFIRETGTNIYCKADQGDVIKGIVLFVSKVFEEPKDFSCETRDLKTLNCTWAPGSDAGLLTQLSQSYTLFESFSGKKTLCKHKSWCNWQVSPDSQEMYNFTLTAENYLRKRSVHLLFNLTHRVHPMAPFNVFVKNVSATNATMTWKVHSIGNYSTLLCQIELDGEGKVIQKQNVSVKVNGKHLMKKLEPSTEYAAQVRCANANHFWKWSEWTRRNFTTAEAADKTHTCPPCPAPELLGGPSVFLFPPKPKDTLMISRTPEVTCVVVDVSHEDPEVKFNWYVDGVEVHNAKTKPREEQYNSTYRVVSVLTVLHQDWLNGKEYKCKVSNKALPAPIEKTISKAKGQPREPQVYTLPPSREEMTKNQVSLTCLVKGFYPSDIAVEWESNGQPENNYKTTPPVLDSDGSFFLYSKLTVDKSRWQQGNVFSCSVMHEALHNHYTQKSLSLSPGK
Consider B1, for which the Kd was 2.37 nM, the koff was determined as 0.000697 s⁻¹ and the on-rate (kon) is 294000 M⁻¹ s⁻¹.
In the same order, the values of B2 are 0.022 nM, 4.4e-07 s⁻¹ and 20000 M⁻¹ s⁻¹.
In the case of B3, the Kd worked out at 3.75 nM.
B4 yielded a Kd of 1.59 nM.
Turning to B5, the Kd is 8.96 nM.
As to B6, the Kd was 6.65 nM, the koff came to 0.000942 s⁻¹ and the kon amounted to 142000 M⁻¹ s⁻¹.
The matching figures for B7: 44.5 nM, 0.002 s⁻¹ and 45100 M⁻¹ s⁻¹.
Molecule B8 displayed a Kd of 0.0207 nM.

In the next assay the target is Canine_OSMR_hlgG1_Fc (canine). As to the kind of experiment: SPR Biacore, OSMR on chip.
Chain of Canine_OSMR_hlgG1_Fc (canine) (chain, as listed by the source limits assumed, form in doubt): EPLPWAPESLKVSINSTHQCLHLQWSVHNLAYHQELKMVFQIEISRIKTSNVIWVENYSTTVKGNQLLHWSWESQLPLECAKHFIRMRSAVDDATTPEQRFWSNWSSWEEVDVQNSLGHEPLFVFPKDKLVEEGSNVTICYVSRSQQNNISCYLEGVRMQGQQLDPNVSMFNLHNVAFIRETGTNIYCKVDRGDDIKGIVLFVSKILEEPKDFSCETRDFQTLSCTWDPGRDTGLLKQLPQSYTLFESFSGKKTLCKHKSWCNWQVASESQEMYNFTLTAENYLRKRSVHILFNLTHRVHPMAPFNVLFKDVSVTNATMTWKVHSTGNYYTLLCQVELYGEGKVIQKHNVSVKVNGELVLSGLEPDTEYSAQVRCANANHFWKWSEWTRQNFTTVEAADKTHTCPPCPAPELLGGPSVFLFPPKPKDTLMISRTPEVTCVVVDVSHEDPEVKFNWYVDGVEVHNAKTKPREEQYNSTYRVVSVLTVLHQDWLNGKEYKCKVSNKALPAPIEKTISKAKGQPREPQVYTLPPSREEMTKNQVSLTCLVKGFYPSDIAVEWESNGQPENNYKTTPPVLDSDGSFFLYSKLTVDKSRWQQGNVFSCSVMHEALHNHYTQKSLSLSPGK
Regarding B1, the Kd was determined as 5.29 nM, the koff was 0.00104 s⁻¹ and the kon came to 196000 M⁻¹ s⁻¹.
In the same order, the values of B2 are 1.38 nM, 0.000222 s⁻¹ and 161000 M⁻¹ s⁻¹.
B3 came in with a Kd of 7.87 nM.
Same read-out and setting: then B4, with 2.03 nM; and B9, with 14.2 nM.
Take B6: the Kd is 12.8 nM, the koff was 0.00328 s⁻¹ and the kon was found to be 256000 M⁻¹ s⁻¹.
In turn, B7 yielded a Kd of 442 nM, a koff of 0.00084 s⁻¹ and a kon of 1900 M⁻¹ s⁻¹.
In turn, B8 displayed a Kd of 0.951 nM.

The next assay concerns the target Feline_OSMR_hlgG1_Fc (feline). As to the kind of experiment: indirect ELISA, fOSMR coated; OD ratio to antibody expression control.
With B1, the ELISA ratio was found to be 1.61 OD ratio.
Same read-out and setting: the result for B2 reads 1.76 OD ratio; that for B10, 0.217 OD ratio.
Still for that read-out and setting: the result for B11 reads 0.375 OD ratio; that for B12, 0.298 OD ratio.
As for B13, the ELISA ratio is 0.134 OD ratio.
Same read-out and setting: then B14, with 0.15 OD ratio.
Consider B6, for which the ELISA ratio came out at 1.61 OD ratio.
Still for that read-out and setting: then B7, with 1.72 OD ratio.

The next assay concerns the target Feline_OSMR_hlgG1_Fc (feline). As to the kind of experiment: SPR Biacore.
Turning to B1, the Kd stood at 1.24 nM, the koff was 0.000945 s⁻¹ and the kon is 759000 M⁻¹ s⁻¹.
Consider B2, for which the Kd was 1.57 nM, the koff was 0.000346 s⁻¹ and the kon is 220000 M⁻¹ s⁻¹.
In the case of B10, the Kd stood at 1.83 nM, the koff came to 0.000468 s⁻¹ and the kon came to 255000 M⁻¹ s⁻¹.
Molecule B11 had a Kd of 1.43 nM, a koff of 0.000247 s⁻¹ and a kon of 173000 M⁻¹ s⁻¹.
B12 returned a Kd of 1.63 nM, a koff of 0.000282 s⁻¹ and a kon of 172000 M⁻¹ s⁻¹.
The matching figures for B13: 7.03 nM, 0.00158 s⁻¹ and 225000 M⁻¹ s⁻¹.
In the same order, the values of B14 are 1.53 nM, 0.000274 s⁻¹ and 179000 M⁻¹ s⁻¹.
In the same order, the values of B6 are 9.08 nM, 0.00119 s⁻¹ and 131000 M⁻¹ s⁻¹.
B7 registered a Kd of 0.312 nM, a koff of 8.06e-05 s⁻¹ and a kon of 242000 M⁻¹ s⁻¹.

For another assay, the target named is Canine_OSMR_hlgG1_Fc (canine). As to the kind of experiment: SPR Biacore.
Molecule B1 displayed a Kd of 3.83 nM, a koff of 0.0021 s⁻¹ and a kon of 572000 M⁻¹ s⁻¹.
In the same order, the values of B2 are 6.13 nM, 0.000302 s⁻¹ and 49400 M⁻¹ s⁻¹.
The matching figures for B10: 3.94 nM, 0.000256 s⁻¹ and 65000 M⁻¹ s⁻¹.
Turning to B11, the Kd is 1.69 nM, the koff is 6.76e-05 s⁻¹ and the kon was 40100 M⁻¹ s⁻¹.
B12 displayed a Kd of 5.32 nM, a koff of 0.000219 s⁻¹ and a kon of 41200 M⁻¹ s⁻¹.
In the same order, the values of B13 are 40 nM, 8.63 s⁻¹ and 2.16e+08 M⁻¹ s⁻¹.
For B14, the Kd came to 5.48 nM, the koff came to 0.000222 s⁻¹ and the kon came to 40500 M⁻¹ s⁻¹.
In the same order, the values of B7 are 7.49 nM, 0.000775 s⁻¹ and 88400 M⁻¹ s⁻¹.
